Data on 1 molecule can be found in patent US8652467B2, “Dek protein compositions and methods of using the same” (The Regents of the University of Michigan, priority 2005, dated 2014).

For test [1], the system named is purified neutrophils (PMN). The test can be described thus: In vitro migration assay with purified neutrophils. Type of test: cell-based, human. The conditions noted are these: various concentrations of recombinant DEK in lower chamber; 79 nM vs control. How it is done:
Purified neutrophils (PMN) were treated with IL-8 (50 nM), the CXCR2 small molecule inhibitor SB225002 (3 μM), DEK (79 nM), IL-8 plus SB225002, or DEK plus SB225002 for 5 min at room temperature before and then during the migration assay. After 1 h, the number of fluorescently labeled migrating cells in the lower chamber was determined at 485 nM/535 nm wavelengths by Tecan GENios (Phenix, Austria). […] The results are expressed as the average fold increase in the number of cells migrating toward DEK compared to control wells containing medium only. White blood cells were isolated from venous blood from healthy donors as described above, and were depleted of monocytes by adherence to plastic for 2 h as described in the Cell Preparation section. […] The cells were washed and resuspended at 1×10^6 cells/ml in serum-free RPMI medium, and 1×10^5 labeled cells in 100 μl were added to the upper chamber of a 24-well Transwell chemotaxis insert with pore size of 3 μm or 5 μm (Corning, N.Y.). The lower chambers contained serum-free RPMI medium alone, recombinant DEK made in baculovirus, or a deletion mutant of the β form of human GLI-2 (See, e.g., Smith et al., J Virol 75, 2301-13 (2001)) produced in baculovirus as the control protein. After 30 min to 1 h, the number of fluorescently labeled migrating cells in the lower chamber was determined at […] wavelength using a Tecan GENios plate-reader (Phenix, Austria). The results were expressed as the average fold increase of the number of cells migrating toward lower chambers containing DEK divided by the number of cells migrating toward the control wells (medium alone). Forty ml of venous blood was collected from healthy volunteers into a 50 ml sterile syringe containing a mixture of 7 ml 0.25 M Citrate (0.17 M NA Citrate and 0.083 M Citric Acid) and 6% Dextran in PBS buffer. The blood was incubated for 30 min at room temperature and the upper phase was collected and further separated by Ficoll as described above. The neutrophil fraction was collected and washed with HBSS buffer and then pelleted again. […]

Another test deals with MDM and HeLa cells. The test can be described thus: Uptake of recombinant DEK by cells. The test is classed as cell-based, human. The settings on record: MDM (12-day) and HeLa cells.

“Also recorded” adds a separate entry of the source.

B1: DEK: full-length recombinant DEK protein produced in baculovirus (protein, UniProt P35659 1-375, looked up)
chain: MSASAPAAEGEGTPTQPASEKEPEMPGPREESEEEEDEDDEEEEEEEKEKSLIVEGKREKKKVERLTMQVSSLQREPFTIAQGKGQKLCEIERIHFFLSKKKTDELRNLHKLLYNRPGTVSSLKKNVGQFSGFPFEKGSVQYKKKEEMLKKFRNAMLKSICEVLDLERSGVNSELVKRILNFLMHPKPSGKPLPKSKKTCSKGSKKERNSSGMARKAKRTKCPEILSDESSSDEDEKKNKEESSDDEDKESEEEPPKKTAKREKPKQKATSKSKKSVKSANVKKADSSTTKKNQNSSKKESESEDSSDDEPLIKKLKKPPTDEELKETIKKLLASANLEEVTMKQICKKVYENYPTYDLTERKDFIKTTVKELIS
modifications: full-length
notes: full-length recombinant DEK protein produced in baculovirus
With B1, the “neutrophil migration toward DEK” value in test [1] was “statistically significant; also recorded: specifically migrate toward DEK in a dose-dependent manner”. In addition, the uptake by cells entry in the test on MDM and HeLa cells is “can be taken up”.
